Assay results reported in US20060258607.

Molecular target: biotinylated human D-ghrelin (octanoylated) (Homo sapiens) (UniProt Q9UBU3)
Experiment: pulldown
Conditions: 37 C, 1 mM Ca/Mg, 47% active

UniProt Q9UBU3, sequence (Q9UBU3 24-51): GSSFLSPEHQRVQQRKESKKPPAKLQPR

Sequence: CGUGUGAGGCAAUAAAACUUAAGUCCGAAGGUAACCAAUCCUACACG [SOT-C (B11trc, D-RNA)]
- Kd: 100 nM
